B1: chemotaxis histidine kinase (CheA) (enzyme)
chain: MSMDISDFYQTFFDEADELLADMEQHLLVLQPEAPDAEQLNAIFRAAHSIKGGAGTFGFSVLQETTHLMENLLDEARRGEMQLNTDIINLFLETKDIMQEQLDAYKQSQEPDAASFDYICQALRQLALEAKGETPSAVTRLSVVAKSEPQDEQSRSQSPRRIILSRLKAGEVDLLEEELGHLTTLTDVVKGADSLSAILPGDIAEDDITAVLCFVIEADQITFETVEVSPKISTPPVLKLAAEQAPTGRVEREKTTRSNESTSIRVAVEKVDQLINLVGELVITQSMLAQRSSELDPVNHGDLITSMGQLQRNARDLQESVMSIRMMPMEYVFSRYPRLVRDLAGKLGKQVELTLVGSSTELDKSLIERIIDPLTHLVRNSLDHGIELPEKRLAAGKNSVGNLILSAEHQGGNICIEVTDDGAGLNRERILAKAASQGLTVSENMSDDEVAMLIFAPGFSTAEQVTDVSGRGVGMDVVKRNIQKMGGHVEIQSKQGTGTTIRILLPLTLAILDGMSVRVADEVFILPLNAVMESLQPREADLHPLAGGERVLEVRGEYLPIVELWKVFNVAGAKTEATQGIVVILQSGGRRYALLVDQLIGQHQVVVKNLESNYRKVPGISAATILGDGSVALIVDVSALQAINREQRMANTAA

Tests used:
CheA (Escherichia coli) = CheA (Escherichia coli) (UniProt P07363); conditions: cited from earlier work
[1] = biological target: cytoplasmic fragment of the E coli Asp receptor (CF4Q) (E. coli); assay: co-sedimentation

| Molecule | Kd (CheA (Escherichia coli)) | fraction of CheA bound [1] |
| --- | --- | --- |
| CheA (from UniProt P07363) | 490 nM |  |
| B1 |  | 88% |

— PMC9812933
